From patent publication EP4345113A1 (SDS Optic Spolka Akcyjna, dated 2024)

Experiments:
[1] = target: T1, recombinant HER2 ECD domain (human, UniProt P04626 23-652); test: Western blot
T1 construct: extracellular domain; also called extracellular domain of HER2

[2] = target: HER2 antigen (as used in the ELISA binding assays and on the optoelectronic biosensors) (human) (UniProt P04626); test: in vitro antigen binding curve (ELISA), half of the effective dose
[3] = target: T2, human epidermal growth factor receptor 2 (HER2), native, in SK-BR-3 and SK-OV-3 cells and cell lysates (human, UniProt P04626 23-1255); test: immunofluorescence on fixed cells
T2 construct: whole, on cells; Detected in denatured cell lysates (Western blot) and in fixed cells (immunofluorescence); also called HER2 antigen; HER2 protein

[4] = target: HER2 antigen (as used in the ELISA binding assays and on the optoelectronic biosensors) (human) (UniProt P04626); test: direct ELISA, lot SDS-20211231 after 352 days at -80°C; amount of antibody that binds half of the available antigen
[5] = target: HER2 antigen (as used in the ELISA binding assays and on the optoelectronic biosensors) (human) (UniProt P04626); test: direct ELISA, lot SDS-20211201 after 430 days at -80°C; amount of antibody that binds half of the available antigen
[6] = target: HER2 antigen (as used in the ELISA binding assays and on the optoelectronic biosensors) (human) (UniProt P04626); test: direct ELISA, lot SDS-20220126 after 340 days at -80°C; amount of antibody that binds half of the available antigen
[7] = target: HER2 antigen (as used in the ELISA binding assays and on the optoelectronic biosensors) (human) (UniProt P04626); test: direct ELISA, lot SDS-20220120 after 341 days at -80°C; amount of antibody that binds half of the available antigen

Binder	binding result [1]	ED50 [2] [nM]	binding result [3]	ED50 [4] [µg]	ED50 [5] [µg]	ED50 [6] [µg]	ED50 [7] [µg]
mAb anti-human-HER2/70.27.58 - clone 58 (antibody, V domains shown, also called mAb anti-human-HER2/clone 58; anti-HER2/70.27.58) VH: EVQLQQSGPELEKPGASVKISCKASGYSFTGYNMNWVKQSNGKSLEWIGTIDPNYGTSYNQKFKGKATLTVDKSSSTAYMHLKSLTSEDSSVYYCARRKVNYEAWFAFWGQGTLVTVSA VL: DIVLTQSPASLAVSLGQRATISCRASESVDSYGNSFMHWYQQKPGQPPKLLIYRASNLESGIPARFSGSGSRTDFTLTINPVEADDVATYYCQQSNEDPFTFGSGTKLEIKR	binds	0.0922	binds	–	–	–	–
mAb anti-human-HER2/70.21.73.67 - clone 67 (antibody, V domains shown, Used as a biotin complex in the sandwich ELISA; No cleavage site is stated; also called mAb anti-human-HER2/clone 67; anti-HER2/70.21.73.67) VH: EIQLQQSGPELVKPGASVRVSCKASGYSFTDYNMYWVRQSQGESLEWIGYIDHYNGNTGYNQKFRDKATLTVDKASSTAFMHLNSLTSEDSAVYYCARHYDYGAMDYWGQGTSVTVSS VL: DIVMTQSQKFMSTSVGDRVSVTCKASQNVGTNVAWYQQKPGQSPKALIYSASYRYSGVPDRFTGSGSGTDFTLTISTVQSEDLAEYFCQHYYIYPLTFGAGTKLELKR	binds	0.235	binds	0.0043	0.0046	0.0043	0.004
